Data published in PMC9811540.

Target: UltraID-δ opioid receptor fusion protein (UniProt P41143)
Assay: proximity labelling; test selection on live Expi293F cells expressing UltraID-DOR; 0.1 nM DTK-DNA, 0.1 nM Met-Enk-RF-DNA, 100 nM non-ligand DNA, biotin 2 μM, ATP 50 μM, 30 minutes; lysis with 1% SDS, streptavidin beads, qPCR

## Dmt-Tic-Lys (DTK), DNA-linked (peptide)
  fold enrichment over non-ligand DNA: 280 fold

## Met-Enk-RF, DNA-linked (peptide)
  fold enrichment over non-ligand DNA: 40 fold
